From PMC4316771
pKd: −log10 of the molar value.

What was measured:
[1] = target: FcRn-p3 (human FcRn fused to the amino terminal part of the bacteriophage p3 protein and the CVDE protein) (human) (UniProt P55899); assay: ELISA; phage-ELISA at pH 6.0: FcRn-p3 coated on Maxisorp plates (0.25 μg/well); phage-Fc supernatants diluted 1/2 and 1/4 in P6 (100 mM sodium phosphate, 50 mM NaCl, pH 6.0) with 5% skimmed milk and 0.1% Tween-20; 2 h at 37°C; bound phages detected with HRP anti-M13 antibody; results as ratios of signals
[2] = target: soluble human FcRn (human) (UniProt P55899); assay: SPR; BIAcore X100, CM5 chip, recombinant human FcRn immobilised; IgG 1-200 nM flowed at 10 μl/min, 25°C, 50 mM sodium phosphate pH 6.0, 150 mM NaCl, 0.02% NaN3, 0.01% Tween-20; steady-state affinity model
human complement C1q = assay: ELISA; C1q (0.5 μg/well) or FcγRIIIA-V158 (0.1 μg/well) coated on Maxisorp plates, FcγRIIA-R131 (0.1 μg/well) or FcγRIIB (0.4 μg/well) on nickel chelate plates; IgG in HEK293-F supernatants aggregated with HRP F(ab')2 goat anti-human F(ab')2, 0.5 μg/ml (0.25 μg/ml for FcγRIIIA-V158) in PBS, 1 h at 30°C; results as ratio variant/WT
[3] = target: human FcγRIIIA-V158 (human); assay: as above
human FcγRIIB (human) = human FcγRIIB (human) (UniProt P31994); assay: as above
[4] = target: human FcγRIIA-R131 (human); assay: as above
[5] = target: FcRn-p3 (human FcRn fused to the amino terminal part of the bacteriophage p3 protein and the CVDE protein) (human) (UniProt P55899); assay: ELISA; FcRn-p3 (0.1 μg/well) coated on Maxisorp plates in P6 (pH 6.0); IgG in HEK293-F supernatants aggregated with HRP F(ab')2 goat anti-human F(ab')2, diluted in P6 to 0.0375 μg/ml, 1 h at 30°C; results as ratio variant/WT

Chain of UniProt P31994 (P31994 43-217): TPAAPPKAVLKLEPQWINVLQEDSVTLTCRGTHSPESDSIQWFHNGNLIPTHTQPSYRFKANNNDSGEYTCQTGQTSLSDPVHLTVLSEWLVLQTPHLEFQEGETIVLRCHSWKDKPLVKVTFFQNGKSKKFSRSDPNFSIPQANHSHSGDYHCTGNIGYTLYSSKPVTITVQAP

Substance | phage-ELISA ratio/Fc-WT [1] | pKd [2] | ELISA ratio variant/WT (human complement C1q) | ELISA ratio variant/WT [3] | ELISA ratio variant/WT (human FcγRIIB (human)) | ELISA ratio variant/WT [4] | ELISA ratio variant/WT [5]
Fc variant Fc-QL (phage-displayed Fc 226-447) (domain or fragment) | 3.2 |  |  |  |  |  | 
Fc variant Fc-YTE (phage-displayed Fc 226-447) (domain or fragment) | 3.5 |  |  |  |  |  | 
anti-CD20 IgG1 IgG-WT (produced in YB2/0 cells) (antibody) |  | 7.00 |  |  |  |  | 
anti-CD20 IgG1 variant IgG-LS (produced in HEK293-F cells) (antibody) |  |  | 2.39 | 1.3 | 0.97 | 2.52 | 4.46
anti-CD20 IgG1 variant IgG-QL (produced in HEK293-F cells) (antibody) |  |  | 2.47 | 0.59 | 0.95 | 0.99 | 2.39
anti-CD20 IgG1 variant IgG-YTE (produced in HEK293-F cells) (antibody) |  |  | 0.64 | 0.27 | 0.42 | 0.27 | 2.06
